Experiments:
chicken gizzard Tpm [1] = target: T1, chicken gizzard Tpm (Gallus gallus, UniProt P19352); assay: Binding to immobilized Tpm in a 96 well plate (biotin-HKa competition or direct binding)
T1 construct: purchased Sigma; host or cells: chicken gizzard (tissue-derived, as the name says)
Description: Plates are coated at room temperature with chicken gizzard Tpm (Sigma) in Tris buffer-saline (TBS) (200 ng/well). After incubation for 2 hours, wells are washed with TBS, then 1% BSA/TBS/Tween-20 is added to each well and incubate at 37° C. for two hours. HKa (Enzyme Laboratories) that had been previously biotinylated with EZ-Link (Pierce) according to the manufacturers instructions, is added to the plate at a concentration of 10 nM together with ZnCl2 (10 μM) and the appropriate concentration of the protein, domain or peptide competitor. The plates are incubated at room temperature and then washed with TBS/Tween-20. Avidin-HRP is added, incubated for 20 minutes at room temperature, washed with TBS/Tween-20 and the chromogenic substrate is added. The reaction is stopped with sulfuric acid and the plate read at 490 nm.
The IC50 for the displacement of biotinylated-HKa for the peptides shown in Table 5 was determined as follows: 10 nM biotin-HKa is added to a 96 well plate previously coated with 200 ng of chicken gizzard Tpm in the presence of 10 μM ZnCl2. Increasing amounts of the peptides are added to the wells. The remaining biotin-HKa bound to Tpm was detected using avidin-HRP and a chromogenic substrate. A Kd was determined by non-linear regression analysis of the empirical data. The effect on the Matrigel Plug assay was determined as follows: Matrigel (0.5 mL) containing 400 ng/ml of bFGF, 50 μg/ml heparin with or without the peptide (300 μM) or saline buffer are injected in the flanks of a mouse. After five days, the plugs are removed and the plugs scanned.
The N-terminus of the pentapeptide HHPHG has been derivatized (capped) in an attempt to increase the pentapeptides' affinity to Tpm by increasing productive molecular contacts (or interactions). […] The IC50 for the displacement of biotinylated-HKa for the capped peptides shown in the table was determined as follows: 10 nM biotin-HKa was added to a 96 well plate previously coated with 200 ng of chicken gizzard Tpm in the presence of 10 μM ZnCl2. Increasing amounts of the peptides were added to the wells. The remaining biotin-HKa bound to Tpm was detected using avidin-HRP and a chromogenic substrate. A Kd was determined by non-linear regression analysis of the empirical data

hTm3 = hTm3 (Homo sapiens, UniProt P09493); details: SPR, MacDonald et al. 2001; read-out: Kd of binding to immobilized hTm3; cited from earlier work
Chain of hTm3 (P09493 1-284 isoform P09493-3): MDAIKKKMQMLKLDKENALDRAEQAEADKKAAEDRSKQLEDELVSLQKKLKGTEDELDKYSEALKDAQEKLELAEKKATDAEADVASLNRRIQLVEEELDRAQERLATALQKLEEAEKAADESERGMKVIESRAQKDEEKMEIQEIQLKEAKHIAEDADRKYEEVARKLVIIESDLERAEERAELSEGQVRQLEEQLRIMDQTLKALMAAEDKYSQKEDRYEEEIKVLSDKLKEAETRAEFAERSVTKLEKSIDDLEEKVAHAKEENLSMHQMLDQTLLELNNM

HUVEC = assay: EC proliferation assay (growth factor-induced); type: cell-based, human; details: bFGF 10 ng/ml; 20 nM HKa, 60 nM HKa domain 5
Description: EC proliferation assays. The effect of HKa on ECs in the absence or presence of mAb TM-311 was initially assessed using a proliferation assay, as described in Zhang et al., supra. Relative numbers of cells remaining in each well of a 96 well microplate after incubation for 48 hours in the absence or presence of HKa were determined using the Aqueous® cell proliferation assay (Promega, Madison, Wis.). Results are presented as the percent inhibition of bFGF-induced EC proliferation, which essentially reflects the extent of HKa-induced EC apoptosis. Though bFGF was used as the EC mitogen in most studies of the studies described herein, identical results were obtained using VEGF.

chicken gizzard Tpm [2] = target: T1, chicken gizzard Tpm; assay: Binding of HKa to purified Tpm immobilized in 96 well microplates; details: for inhibition of binding of HKa to purified immobilized Tpm (in words): 20 nM biotin-HKa, 10 μM Zn2+
Description: To measure the binding of HKa to purified Tpm, 96 well microplates were coated with 20 μg/ml of chicken gizzard Tpm (Sigma), or bovine serum albumin (BSA), as a control. Wells were then blocked by incubation with phosphate buffered saline containing 5% nonfat milk, and incubated with increasing concentrations of HKa (0.01-20 nM) for 2 hours. Specifically-bound HKa was quantitated as described for cell binding assays (van Iwaarden et al., supra, and by assessing the ability of a 100-fold molar excess of unlabeled HKa to compete with biotin-HKa for binding.
In selected experiments, the ability of mAb TM-311 and recombinant HKa D5 to inhibit the binding of biotin-HKa to Tpm was assessed. These studies allowed determination of the Kd for binding of HKa D5 to Tpm using the equation: Kd (D5)=IC50/(1+[HKa]/Kd (HKa)) where IC50 is the concentration of HKa D5 that inhibited HKa binding by 50%, and Kd(HKa) is the Kd for binding of HKa to Tpm.

[3] = competition with 10 nM biotin-HKa
[4] = plate coated with 200 ng chicken gizzard Tpm, 10 μM ZnCl2

T1 sequence (P19352 1-284 isoform P19352-2): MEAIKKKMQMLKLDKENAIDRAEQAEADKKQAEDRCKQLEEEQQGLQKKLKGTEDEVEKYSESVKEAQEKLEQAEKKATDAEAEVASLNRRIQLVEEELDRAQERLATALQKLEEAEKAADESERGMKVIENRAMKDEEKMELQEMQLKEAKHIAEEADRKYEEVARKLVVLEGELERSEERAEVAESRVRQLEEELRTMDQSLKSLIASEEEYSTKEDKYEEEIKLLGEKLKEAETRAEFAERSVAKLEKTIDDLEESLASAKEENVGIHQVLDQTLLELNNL
T1 sequence (P04268 1-284 isoform P04268-2 F73S/I172L/T199L/N203E/L204A partner): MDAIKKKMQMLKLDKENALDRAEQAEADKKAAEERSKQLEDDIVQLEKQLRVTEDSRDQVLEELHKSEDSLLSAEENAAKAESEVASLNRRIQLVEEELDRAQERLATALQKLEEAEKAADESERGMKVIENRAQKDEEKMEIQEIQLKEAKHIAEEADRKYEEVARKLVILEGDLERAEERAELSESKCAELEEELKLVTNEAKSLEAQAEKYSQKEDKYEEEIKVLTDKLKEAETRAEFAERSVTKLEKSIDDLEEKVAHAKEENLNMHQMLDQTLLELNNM

B1: endostatin: Zn2+-binding, antiangiogenic polypeptide comprised of the NC domain of collagen XVIII (protein, UniProt P39060 1572-1754, looked up)
Endostatin: HSHRDFQPVLHLVALNSPLSGGMRGIRGADFQCFQQARAVGLAGTFRAFLSSRLQDLYSIVRRADRAAVPIVNLKDELLFPSWEALFSGSEGPLKPGARIFSFDGKDVLRHPTWPQKSVWHGSDPNGRRLTESYCETWRTEAPSATGQASSLLGGRLLGQSAASCHHAYIVLCIENSFMTASK
modifications: Endostatin
Kd relative to that reported previously by SPR (fold better) (chicken gizzard Tpm [1]): 50 fold
affinity relative to HKa or HKa-D5 binding (fold lower) (chicken gizzard Tpm [1]): approximately 1,000 fold
Kd (chicken gizzard Tpm [1]; competition with 10 nM biotin-HKa, 10 μM ZnCl2): ~2000 nM
Kd (hTm3): ~100000 nM

B2: HKa D5: Recombinant HKa domain 5, 125 residue D5 domain, SEQ ID NO:26 (protein, listed as Homo sapiens)
chain: VSPPHTSMAPAQDEERDSGKEQGHTRRHDWGHEKQRKHNLGHGHKHERDQGHGHQRGHGLGHGHEQQHGLGHGHKFKLDDDLEHQGGHVLDHGHKHKHGHGHGKHKNKGKKNGKHNGWKTEHLAS
affinity for immobilized Tpm relative to endostatin (fold higher) (chicken gizzard Tpm [1]; [3]): approximately 1,000 fold
Kd (chicken gizzard Tpm [1]; [4]): ~1 nM
inhibition of bFGF-induced EC proliferation (in words) (HUVEC): inhibition
inhibition of binding of HKa to purified immobilized Tpm (in words) (chicken gizzard Tpm [2]): blocked binding
inhibition of binding of HKa to purified immobilized Tpm (in words) (chicken gizzard Tpm [2]; listed as HKa domain 5): inhibits binding
Kd (chicken gizzard Tpm [2]; from IC50 of competition with biotin-HKa (equation of b366), read-out: estimated Kd of binding to Tpm): ~2.1 nM

B3: rabbit HPRG: rabbit Histidine-Proline-Rich Glycoprotein, SEQ ID NO:22 (protein)
chain: LTPTDCKTTKPLAEKALDLINKWRRDGYLFQLLRVADAHLDGAESATVYYLVLDVKETDCSVLSRKHWEDCDPDLTKRPSLDVIGQCKVIATRYSDEYQTLRLNDFNCTTSSVSSALANTKDSPVLFDFIEDTEPFRKSADKALEVYKSESEAYASFRVDRVERVTRVKGGERTNYYVDFSVRNCSRSHFHRHPAFGFCRADLSFDVEASNLENPEDVIISCEVFNFEEHGNISGFRPHLGKTPLGTDGSRDHHHPHKPHKFGCPPPQEGEDFSEGPPLQGGTPPLSPPFRPRCRHRPFGTNETHRFPHHRISVNIIHRPPPHGHHPHGPPPHGHHPHGPPPHGHPPHGPPPRHPPHGPPPHGHPPHGPPPHGHPPHGPPPHGHPPHGPPPHGHPPHGHGFHDHGPCDPPSHKEGPQDLHQHAMGPPPKHPGKRGPGKGHFPFHWRRIGSVYQLPPLQKGEVLPLPEANFPQLLLRNHTHPLKPEIQPFPQVASERCPEEFNGEFAQLSKFFPSTFPK
binding to immobilized Tpm / displacement of biotin-HKa (in words) (chicken gizzard Tpm [1]; 10 nM biotin-HKa, 200 ng chicken gizzard Tpm, 10 μM ZnCl2): binds
Kd (chicken gizzard Tpm [1]; [4]): ~2 nM

B4: H/P domain: Histidine-Proline rich domain of HPRG, responsible for anti-angiogenic activity (protein)
chain: SVNIIHRPPPHGHHPHGPPPHGHHPHGPPPHGHPPHGPPPRHPPHGPPPHGHPPHGPPPHGHPPHGPPPHGHPPHGPPPHGHPPHGHGFHDHGPCDPPSHK
affinity for immobilized Tpm relative to endostatin (fold higher) (chicken gizzard Tpm [1]; [3]): approximately 1,000 fold
Kd (chicken gizzard Tpm [1]; [4]): ~2 nM
